Test results taken from paper doi:10.1101/2025.08.27.672771 (bioRxiv, 2025).

Biological target: the molecule itself
Assay: SEC

B1: human TRPC3 (hTRPC3) channel, GFP-MBP-tagged (natural protein, UniProt Q13507 86-921, looked up)
chain: MREKGRRQAVRGPAFMFNDRGTSLTAEEERFLDAAEYGNIPVVRKMLEESKTLNVNCVDYMGQNALQLAVGNEHLEVTELLLKKENLARIGDALLLAISKGYVRIVEAILNHPGFAASKRLTLSPCEQELQDDDFYAYDEDGTRFSPDITPIILAAHCQKYEVVHMLLMKGARIERPHDYFCKCGDCMEKQRHDSFSHSRSRINAYKGLASPAYLSLSSEDPVLTALELSNELAKLANIEKEFKNDYRKLSMQCKDFVVGVLDLCRDSEEVEAILNGDLESAEPLEVHRHKASLSRVKLAIKYEVKKFVAHPNCQQQLLTIWYENLSGLREQTIAIKCLVVLVVALGLPFLAIGYWIAPCSRLGKILRSPFMKFVAHAASFIIFLGLLVFNASDRFEGITTLPNITVTDYPKQIFRVKTTQFTWTEMLIMVWVLGMMWSECKELWLEGPREYILQLWNVLDFGMLSIFIAAFTARFLAFLQATKAQQYVDSYVQESDLSEVTLPPEIQYFTYARDKWLPSDPQIISEGLYAIAVVLSFSRIAYILPANESFGPLQISLGRTVKDIFKFMVLFIMVFFAFMIGMFILYSYYLGAKVNAAFTTVEESFKTLFWSIFGLSEVTSVVLKYDHKFIENIGYVLYGIYNVTMVVVLLNMLIAMINSSYQEIEDDSDVEWKFARSKLWLSYFDDGKTLPPPFSLVPSPKSFVYFIMRIVNFPKCRRRRLQKDIEMGMGNSKSRLNLFTQSNSRVFESHSFNSILNQPTRYQQIMKRLIKRYVLKAQVDKENDEVNEGELKEIKQDISSLRYELLEDKSQATEELAILIHKLSEKLNPSMLRCE
- stoichiometry N: 4
